Measured values published in publication PMC6538622.

Columns and labels:
[1] = molecular target: Yersinia pestis RNase E N-terminal catalytic domain (Yersinia pestis); assay: SEC
[2] = molecular target: Yersinia pestis RNase E N-terminal catalytic domain (Yersinia pestis); assay: SEC-SAXS
[3] = molecular target: Francisella tularensis RNase E N-terminal catalytic domain (Francisella tularensis) (UniProt Q5NFK7); assay: SEC
[4] = molecular target: Francisella tularensis RNase E N-terminal catalytic domain (Francisella tularensis) (UniProt Q5NFK7); assay: SEC-SAXS
[5] = molecular target: Acinetobacter baumannii RNase E N-terminal catalytic domain (Acinetobacter baumannii); assay: SEC
[6] = molecular target: Acinetobacter baumannii RNase E N-terminal catalytic domain (Acinetobacter baumannii); assay: SEC-SAXS; 5-10 mg/ml protein in 10 mM DTT, 10 mM MgCl2, 0.5 M NaCl, 20 mM Tris pH 8; KW403-4F size-exclusion column, B21 beamline (Diamond Light Source); molecular mass from I(0)

Work on “Yersinia pestis RNase E N-terminal catalytic domain (from UniProt A0AAX2HZU4 1-529) (domain or fragment)” yielded a stoichiometry N [1] of 4 and a stoichiometry N [2] of 4.
With “Francisella tularensis RNase E N-terminal catalytic domain (from UniProt Q5NFK7 1-543) (domain or fragment)” the stoichiometry N [3] was 4 and the stoichiometry N [4] was 4.
“Acinetobacter baumannii RNase E N-terminal catalytic domain (domain or fragment)” was tested, and the stoichiometry N [5] was 4 and the stoichiometry N [6] was 4.
